B1: G. stearothermophilus tyrosyl-tRNA synthetase (Geobacillus stearothermophilus) (protein)
chain: MDLLAELQWRGLVNQTTDEDGLRKLLNEERVTLYCGFDPTADSLHIGHLATILTMRRFQQAGHRPIALVGGATGLIGDPSGKKSERTLNAKETVEAWSARIKEQLGRFLDFEADGNPAKIKNNYDWIGPLDVITFLRDVGKHFSVNYMMAKESVQSRIETGISFTEFSYMMLQAYDFLRLYETEGCRLQIGGSDQWGNITAGLELIRKTKGEARAFGLTIPLVTKADGTKFGKTESGTIWLDKEKTSPYEFYQFWINTDDRDVIRYLKYFTFLSKEEIEALEQELREAPEKRAAQKTLAEEVTKLVHGEEALRQAIRISEALFSGDIANLTAAEIEQGFKDVPSFVHEGGDVPLVELLVSAGISPSKRQAREDIQNGAIYVNGERLQDVGAILTAEHRLEGRFTVIRRGKKKYYLIRYA
B2: AMP deaminase (Saccharomyces cerevisiae S288C) (protein)
chain: MDNQATQRLNDLSLEPAPSHDEQDGSGLVIDIDQRKIGDEQAGVVVDDETPPLEQQDSHESLAADSRNANFSYHENQQLLENGTKQLALDEHDSHSAILEQPSHSTNCSSSNIAAMNKGHDSADHASQNSGGKPRTLSASAQHILPETLKSFAGAPVVNKQVRTSASYKMGMLADDASQQFLDDPSSELIDLYSKVAECRNLRAKYQTISVQNDDQNPKNKPGWVVYPPPPKPSYNSDTKTVVPVTNKPDAEVFDFTKCEIPGEDPDWEFTLNDDDSYVVHRSGKTDELIAQIPTLRDYYLDLEKMISISSDGPAKSFAYRRLQYLEARWNLYYLLNEYQETSVSKRNPHRDFYNVRKVDTHVHHSACMNQKHLLRFIKHKLRHSKDEKVIFRDGKLLTLDEVFRSLHLTGYDLSIDTLDMHAHKDTFHRFDKFNLKYNPIGESRLREIFLKTNNYIKGTYLADITKQVIFDLENSKYQNCEYRISVYGRSLDEWDKLASWVIDNKVISHNVRWLVQIPRLYDIYKKTGIVQSFQDICKNLFQPLFEVTKNPQSHPKLHVFLQRVIGFDSVDDESKVDRRFHRKYPKPSLWEAPQNPPYSYYLYYLYSNVASLNQWRAKRGFNTLVLRPHCGEAGDPEHLVSAYLLAHGISHGILLRKVPFVQYLYYLDQVGIAMSPLSNNALFLTYDKNPFPRYFKRGLNVSLSTDDPLQFSYTREPLIEEYSVAAQIYKLSNVDMCELARNSVLQSGWEAQIKKHWIGKDFDKSGVEGNDVVRTNVPDIRINYRYDTLSTELELVNHFANFKRTIEEK

Legend:
Assay in all cases: purified protein, by the assay type
[1] = substrate: N[C@H](Cc1ccc(O)cc1)C(=O)O; conditions: other: 10 mM MgATP, saturating tRNA^Tyr, 25° C., L-Tyr with cyclodityrosine synthase, D-Tyr with D-tyrosyl-tRNA deacylase, pH 7.78
Protocol: (§1) The pH of all stock solutions was adjusted to 7.0 prior to use. All kinetic assays were performed in 96 well microtiter plates at 25° C. using either 100 or 200 μl of assay mix per well. Under these conditions, the path lengths are 0.28 and 0.56 cm, respectively. The reaction rate for formation of the L-Tyr-tRNA^TYr product was determined by monitoring the increase in absorbance at 340 nm associated with the conversion of NAD^+ to NADH using a BioTek Synergy 4 plate reader (ε340=6220 M^−1 cm^−1).
(§2) Initial rates for each substrate concentration were determined from a linear fit of the data (A340 vs. time). Km and Vmax values were determined by fitting a plot of the initial rate vs. substrate concentration to the Michaelis-Menten equation, the same equations (1) and (2) above:
(§3) [formula] where vo is the initial rate of the reaction and [S] is the substrate concentration. kcat values were calculated from the equation: Vmax=kcat[E]

[2] = substrate: N[C@@H](Cc1ccc(O)cc1)C(=O)O; conditions: other: 10 mM MgATP, saturating tRNA^Tyr, 25° C., L-Tyr with cyclodityrosine synthase, D-Tyr with D-tyrosyl-tRNA deacylase, pH 7.78
Protocol: as §1, §2, §3

[3] = substrate: Nc1ncnc2c1ncn2[C@@H]1O[C@H](COP(=O)(O)O)[C@@H](O)[C@H]1O; type: biochemical, Saccharomyces cerevisiae; conditions: other: pH 7.2, 2 mM ATP, 3 μM IMP dehydrogenase, 25° C., standard error in parenthesis
Protocol: All kinetic assays were performed in 96 well microtiter plates at 25° C. using 200 μl of assay mix per well. Under these conditions, the path length is 0.56 cm. All assays were monitored by following the change in absorbance at 340 nm over 10 minutes using a Synergy 4 Hybrid Microplate Reader (BioTek, Winooski, Vt.).
Initial rates for each substrate concentration were determined from a linear fit of the data (A340 vs. time). Km and Vmax values were determined by fitting a plot of initial rate vs. substrate concentration to the Michaelis-Menten equation:
[formula] where vo is the initial rate of the reaction, [E] is the total enzyme concentration, and [S] is the substrate concentration. kcat values were calculated from the equation: Vmax=kcat[E] (2) where [E] is the molar concentration of the enzyme in the assay.

Protein | Km [1] | Km [2] | Km [3] | kcat [3]
B1 | 23 (±6) μM | 24 (±3) μM | – | –
B2 | – | – | 0.4 (±0.1) mM | 21 (±4) s^−1

Source: patent US9777309B2, “High throughput assay for monitoring AMP production and aminoacyl-tRNA synthetase activity” (Board of Supervisors of Louisiana State University and …, priority 2014, dated 2017)
